Key:
[1] = target: Recombinant Bet v1 (major birch pollen allergen Bet v1) (birch) (UniProt P15494); test: ELISA
[2] = target: Recombinant Bet v1 (major birch pollen allergen Bet v1) (birch) (UniProt P15494); test: BLI
[3] = target: T1, Recombinant Bet v1 (major birch pollen allergen Bet v1) (birch, biotin (biotinylated rBet v1 in the flow cytometry and in the IgE-blocking ELISA; site not stated)); test: flow cytometry on cells; transduced primary human T cells stained with biotinylated rBet v1 (1 μg/ml) and streptavidin-PE, 30 min at 4°C; mCherry reporter; conditions: one partner purified
T1 construct: Bet v1, major allergen of birch pollen (PR-10 family); codon-optimized synthetic gene in pET29b; PDB 4A81 was the Bet v1 model fitted into the cryo-EM map; One molecule for the plain and the biotinylated protein: same construct; also called rBet v1; biotinylated rBet v1
T1 chain: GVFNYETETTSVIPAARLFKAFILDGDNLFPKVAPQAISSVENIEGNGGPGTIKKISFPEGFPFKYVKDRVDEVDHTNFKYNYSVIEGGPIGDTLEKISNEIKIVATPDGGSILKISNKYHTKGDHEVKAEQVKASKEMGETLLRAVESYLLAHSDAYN

[4] = target: T1, Recombinant Bet v1 (major birch pollen …); test: cryo-EM structure; Bet v1 complexed with threefold molar excess of Fab08 and Fab10; reconstruction at 4.8 Å, Cα positioning; conditions: both partners purified

Molecule “eB20 (human anti-Bet v1 antibody from an IgE clone) (from UniProt P01857)” has an EC50 [1] of 8.89 ng/mL.

Molecule “mAb 10 (human anti-Bet v1 IgG monoclonal antibody) (from UniProt P01857)” has an EC50 [1] of 7.26 ng/mL.

For “mAb 11 (human anti-Bet v1 IgG monoclonal antibody) (from UniProt P01857)”, the Kd [2] was 3.61 nM and the EC50 [1] was 4.26 ng/mL.

B1: CAlleR 11 (anti-Bet v1 chimeric allergen receptor with the scFv of mAb 11, CD28 and CD3ζ domains) (other)
VH: EVELLESGGGLVQPGGSLRLSCVGSGFTFPSYAMTWVRQAPGKGLEWVSAISGGGENSGGSTYYADSVKGRFTISRDNSKNTLFLQMSSLRAEDTAVYYCTREPVSWAFGSGTEYFDYWGQGTLVTVSS
VL: QSVLTQPPSASGTPGQRVTISCSGSSSNIGSNTVTWYHQLPGTAPKLLIYNNHRRPSGVPDRFSGSKSGTAASLGISGLQSEDEAAYYCATWDDSLKGWVFGGGTKLTVL
notes: scFv derived from mAb 11 (variable domains as in m5; GenBank within PZ143166-PZ143179); CD28 hinge, transmembrane and intracellular (costimulatory) domains; CD3ζ intracellular signaling domain; Second-generation CAR design in pCDH-EF1-FHC (Addgene 64874), as in Muller et al., 2021a; source: primary human T cells, lentivirally transduced, on cells
B1: binds [3].

B2: Fab08 (Fab of mAb 8) (Fab, V domains shown)
VH: EVQLVQSGAEVKKPGDSLKISCKGSGYSFSNFWIGWVRQMPGKGLELMGIVYPGDSDTKYRPSFLGQVTISADKSIATAFLQWSRLTASDTAIYYCARLGATYAGADFWGQGTLVTVSS
VL: DIQMTQSPSSLSASVGDRVTITCRASQTIVTYLNWYQQKPGKAPKLLIYAASNLQSGVPSRFSGSGSGTDFTLTISSLQPEDFAIYYCQQSYAAFGEGTKVEIK
notes: heavy variable domain as the heavy chain of m3 (mAb 8, IGHV5-51); constant part of the Fab heavy chain; as the light chain of m3 (mAb 8, IGKV1-39); The production of the Fabs is not described
B2: binds [4].

B3: CAlleR 8 (anti-Bet v1 chimeric allergen receptor with the scFv of mAb 8, CD28 and CD3ζ domains) (other)
VH: EVQLVQSGAEVKKPGDSLKISCKGSGYSFSNFWIGWVRQMPGKGLELMGIVYPGDSDTKYRPSFLGQVTISADKSIATAFLQWSRLTASDTAIYYCARLGATYAGADFWGQGTLVTVSS
VL: DIQMTQSPSSLSASVGDRVTITCRASQTIVTYLNWYQQKPGKAPKLLIYAASNLQSGVPSRFSGSGSGTDFTLTISSLQPEDFAIYYCQQSYAAFGEGTKVEIK
notes: scFv derived from mAb 8 (variable domains as in m3; GenBank within PZ143166-PZ143179); CD28 hinge, transmembrane and intracellular (costimulatory) domains; CD3ζ intracellular signaling domain; Second-generation CAR design in pCDH-EF1-FHC (Addgene 64874), as in Muller et al., 2021a; The murine CAlleR 8 (mouse CD28 and CD3ζ domains) is another construct and has no row; source: primary human T …
B3: binds [3].

B4: CAlleR 5 (anti-Bet v1 chimeric allergen receptor with the scFv of mAb 5, CD28 and CD3ζ domains) (other)
VH: EVQLVQSGAEVKKPGESLNISCNGSGYNFTKYWIAWVRQMPGKGLEWMGIIYPGDSDTKYRPSFQGQVTISADKSITTAYLQWSRLKVSDTAIYYCARLGATYGGADYWGQGTLVTVSS
VL: DIQMTQSPSSLSASVGDRVTITCQASQSIVNYLNWYQQKPGKAPKLLIYAASSLQSGVPSRFSGSGSGTDFTLTISSLQPEDFATYYCQQSYAAFGEGTKVEIT
notes: scFv derived from mAb 5 (variable domains as in m2; GenBank within PZ143166-PZ143179); CD28 hinge, transmembrane and intracellular (costimulatory) domains; CD3ζ intracellular signaling domain; Second-generation CAR design in pCDH-EF1-FHC (Addgene 64874), as in Muller et al., 2021a; source: primary human T cells, lentivirally transduced, on cells
B4: binds [3].

B5: Fab10 (Fab of mAb 10) (Fab, V domains shown)
VH: EVQLVESGGGLVQPGGSLRLSCTASGFTFSSYMTHWVRQAPGKGLEWVSHISGDGTNTTYADTVKGRFFTSRDNVKNTLFLQMDSLRAEDTAVYFCARGSWYTTGWHRNYYFGMDVWGQGTTVTVSS
VL: DIVMTQSPLSLPVTPGEPASISCRSSQSLLHSNGYNYLDWYLQKPGRSPQLLIYLGSHRASGVPDRFSGDGSGTDFTLKISRVEAEDVGVYYCMQVLQTPSFGGGTKVEIK
notes: heavy variable domain as the heavy chain of m4 (mAb 10); constant part of the Fab heavy chain; as the light chain of m4 (mAb 10); The production of the Fabs is not described
B5: binds [4].

B6: CAlleR 10 (anti-Bet v1 chimeric allergen receptor with the scFv of mAb 10, CD28 and CD3ζ domains) (other)
VH: EVQLVESGGGLVQPGGSLRLSCTASGFTFSSYMTHWVRQAPGKGLEWVSHISGDGTNTTYADTVKGRFFTSRDNVKNTLFLQMDSLRAEDTAVYFCARGSWYTTGWHRNYYFGMDVWGQGTTVTVSS
VL: DIVMTQSPLSLPVTPGEPASISCRSSQSLLHSNGYNYLDWYLQKPGRSPQLLIYLGSHRASGVPDRFSGDGSGTDFTLKISRVEAEDVGVYYCMQVLQTPSFGGGTKVEIK
notes: scFv derived from mAb 10 (variable domains as in m4; GenBank within PZ143166-PZ143179); CD28 hinge, transmembrane and intracellular (costimulatory) domains; CD3ζ intracellular signaling domain; Second-generation CAR design in pCDH-EF1-FHC (Addgene 64874), as in Muller et al., 2021a; source: primary human T cells, lentivirally transduced, on cells
B6: binds [3].

Source: paper PMC13335422 (The Journal of Experimental Medicine, 2026)
